The results in this text go back to publication PMC12848141.

The conditions of series [1]: O-GlcNAc at T49.
For series [2], the target named is OGT (UniProt O15294). In words: co-IP of HA-YTHDF2 and Myc-OGT. To be noted: reference: HA-YTHDF2 wild type; sites S39.
Series [3] deals with OGT (UniProt O15294). In words: co-IP in H1299 cells. The note with it: reference: YTHDF2 wild type; sites S39.
A short description of series [4]: CHX pulse-chase, protein remaining, HEK-293T. The note with it: glycan lost; control: HA-YTHDF2-WT.
A short description of series [5]: anti-ubiquitin blot, H1299. To be noted: glycan lost; control: HA-YTHDF2-WT.
The nature of series [6]: anti-pS39 blot, H1299. To be noted: glycan lost; control: HA-YTHDF2-WT.
Series [7] is described as follows: CHX pulse-chase, protein remaining, H1299. The note with it: glycan lost; control: HA-YTHDF2-WT.
Series [8] can be described thus: anti-HA IP, anti-pS39 blot, 293T.
A short description of series [9]: anti-HA IP, anti-ubiquitin blot, 293T, MG132. The note with it: glycan lost; control: HA-YTHDF2-WT.

On to YTHDF2: OGA overexpression, for which the other entry in series [1] is “decreases”.
Consider YTHDF2: Flag-OGA overexpression, for which the other result in series [1] is recorded as “decreases, YTHDF2 ubiquitination, Ub/HA ratio ~0.5 vs 1.0 without OGA (read from plot, P < 0.05)”.
Still for that read-out and setting: the entry for “YTHDF2: TMG plus glucose (OGA inhibition, raises O-GlcNAcylation)” is “decreases”.
On to “YTHDF2 (from UniProt Q9Y5A9) HA-YTHDF2-S39A”, for which the “binding against the reference” value in [2] is recorded as “stronger”.
“YTHDF2 (from UniProt Q9Y5A9) YTHDF2-S39A”: the “binding against the reference” value in series [3] is “stronger”.

B1: YTHDF2: T49A (protein)
parent chain: MSASSLLEQRPKGQGNKVQNGSVHQKDGLNDDDFEPYLSPQARPNNAYTAMSDSYLPSYYSPSIGFSYSLGEAAWSTGGDTAMPYLTSYGQLSNGEPHFLPDAMFGQPGALGSTPFLGQHGFNFFPSGIDFSAWGNNSSQGQSTQSSGYSSNYAYAPSSLGGAMIDGQSAFANETLNKAPGMNTIDQGMAALKLGSTEVASNVPKVVGSAVGSGSITSNIVASNSLPPATIAPPKPASWADIASKPAKQQPKLKTKNGIAGSSLPPPPIKHNMDIGTWDNKGPVAKAPSQALVQNIGQPTQGSPQPVGQQANNSPPVAQASVGQQTQPLPPPPPQPAQLSVQQQAAQPTRWVAPRNRGSGFGHNGVDGNGVGQSQAGSGSTPSEPHPVLEKLRSINNYNPKDFDWNLKHGRVFIIKSYSEDDIHRSIKYNIWCSTEHGNKRLDAAYRSMNGKGPVYLLFSVNGSGHFCGVAEMKSAVDYNTCAGVWSQDKWKGRFDVRWIFVKDVPNSQLRHIRLENNENKPVTNSRDTQEVPLEKAKQVLKIIASYKHTTSIFDDFSHYEKRQEEEESVKKERQGRGK
On to B1, for which the degradation_or_half_life entry in series [4] and in series [7] was “increases” in each case. For the same molecule, the “other: ubiquitination” value in [5] and in series [9] was “decreases” throughout. The “other: Ser-39 phosphorylation” value in series [6] was “increases”; in [8] (glycan lost, control: HA-YTHDF2-WT), “increases”.

B2: YTHDF2: TMG plus glucose (protein)
parent chain: MSASSLLEQRPKGQGNKVQNGSVHQKDGLNDDDFEPYLSPQARPNNAYTAMSDSYLPSYYSPSIGFSYSLGEAAWSTGGDTAMPYLTSYGQLSNGEPHFLPDAMFGQPGALGSTPFLGQHGFNFFPSGIDFSAWGNNSSQGQSTQSSGYSSNYAYAPSSLGGAMIDGQSAFANETLNKAPGMNTIDQGMAALKLGSTEVASNVPKVVGSAVGSGSITSNIVASNSLPPATIAPPKPASWADIASKPAKQQPKLKTKNGIAGSSLPPPPIKHNMDIGTWDNKGPVAKAPSQALVQNIGQPTQGSPQPVGQQANNSPPVAQASVGQQTQPLPPPPPQPAQLSVQQQAAQPTRWVAPRNRGSGFGHNGVDGNGVGQSQAGSGSTPSEPHPVLEKLRSINNYNPKDFDWNLKHGRVFIIKSYSEDDIHRSIKYNIWCSTEHGNKRLDAAYRSMNGKGPVYLLFSVNGSGHFCGVAEMKSAVDYNTCAGVWSQDKWKGRFDVRWIFVKDVPNSQLRHIRLENNENKPVTNSRDTQEVPLEKAKQVLKIIASYKHTTSIFDDFSHYEKRQEEEESVKKERQGRGK
As for B2, the “other: Ser-39 phosphorylation” value in [8] (glycan gained, control: untreated cells) is “decreases”.
